We go through five molecules from publication PMC4048344 (Channels, 2014).

Experiment [1] deals with chicken SK2-ARK splice variant, full length, expressed in Xenopus oocytes (chicken). Put plainly: co-IP.
The target of experiment [2] is MBP-tagged SK2-ARK C-terminus (aa 368-553) (chicken). Description: pull-down.
Experiment [3] addresses MBP-tagged SK2 C-terminus (aa 368-553) (chicken, UniProt Q9PTS9 368-553). Put plainly: pull-down.
Experiment [4] deals with chicken SK2 (isoform lacking the ARK insert), full length, expressed in Xenopus oocytes (chicken, UniProt Q9PTS9 1-553). Description: co-IP.

Consider “HA-tagged α9/10-nicotinic acetylcholine receptor (chicken α9 and α10-HA subunits) (from UniProt Q9PTS8 28-484; Q9I8C7 27-452) (complex)”, for which, in experiment [1], the co-precipitated α9/10-nAChRs, percent of that with SK2 is 173 % of SK2.

For “GST-tagged full-length human α-actinin-1 (from UniProt P12814-3 1-914) (natural protein)”, in experiment [2], the bound α-actinin-1, percent of that bound to SK2 was 81.2 % of SK2 and the fold increase in binding with 1 mM CaCl2 against 5 mM BAPTA worked out at 6.8 fold.

As for “calmodulin, purified from bovine brain (from UniProt P62157 1-149) (natural protein)”, the co-precipitated CaM with 5 mM BAPTA, percent of that with SK2 in experiment [2] is 142 % of SK2.

B1: GST-tagged full-length human α-actinin-1 (natural protein, UniProt P12814-3 1-914, looked up)
chain: MDHYDSQQTNDYMQPEEDWDRDLLLDPAWEKQQRKTFTAWCNSHLRKAGTQIENIEEDFRDGLKLMLLLEVISGERLAKPERGKMRVHKISNVNKALDFIASKGVKLVSIGAEEIVDGNVKMTLGMIWTIILRFAIQDISVEETSAKEGLLLWCQRKTAPYKNVNIQNFHISWKDGLGFCALIHRHRPELIDYGKLRKDDPLTNLNTAFDVAEKYLDIPKMLDAEDIVGTARPDEKAIMTYVSSFYHAFSGAQKAETAANRICKVLAVNQENEQLMEDYEKLASDLLEWIRRTIPWLENRVPENTMHAMQQKLEDFRDYRRLHKPPKVQEKCQLEINFNTLQTKLRLSNRPAFMPSEGRMVSDINNAWGCLEQVEKGYEEWLLNEIRRLERLDHLAEKFRQKASIHEAWTDGKEAMLRQKDYETATLSEIKALLKKHEAFESDLAAHQDRVEQIAAIAQELNELDYYDSPSVNARCQKICDQWDNLGALTQKRREALERTEKLLETIDQLYLEYAKRAAPFNNWMEGAMEDLQDTFIVHTIEEIQGLTTAHEQFKATLPDADKERLAILGIHNEVSKIVQTYHVNMAGTNPYTTITPQEINGKWDHVRQLVPRRDQALTEEHARQQHNERLRKQFGAQANVIGPWIQTKMEEIGRISIEMHGTLEDQLSHLRQYEKSIVNYKPKIDQLEGDHQLIQEALIFDNKHTNYTMEHIRVGWEQLLTTIARTINEVENQILTRDAKGISQEQMNEFRASFNHFDRDHSGTLGPEEFKACLISLGYDIGNDPQKKTGMMDTDDFRACLISMGYNMGEAEFARIMSIVDPNRLGVVTFQAFIDFMSRETADTDTADQVMASFKILAGDKNYITMDELRRELPPDQAEYCIARMAPYTGPDSVPGALDYMSFSTALYGESDL
As to B1, the “fold increase in binding with 1 mM CaCl2 against 5 mM BAPTA” value in experiment [3] was 3.2 fold.

B2: HA-tagged α9/10-nicotinic acetylcholine receptor (chicken α9 and α10-HA subunits) (complex)
chain 1: AKGKYAQMLFNELFEDYSNALRPVEDTDKVLNVTLQITLSQIKDMDERNQILTAYLWIRQSWYDAYLKWDKDKYDGLDSIRIPSNLVWRPDIVLYNKADDDFSEPVNTNVVLRYDGKITWDAPAITKSSCVVDVSYFPFDSQQCNLTFGSWTYNGNQVDIINSLDSGDLSDFVEDVEWEIHGMPAVKNVITYGCCSEPYPDVTFTLILKRKSSFYIFNLLLPCILISFLAPLGFYLPADSGEKVSLGVTVLLALTVFQLMVAEIMPPSENVPLIGKYYIATMTMITASTALTIIIMNVHHCGSEAKPVPQWARVVILDYMSKIFFVYDVGENCTSPRREKEQEHRLEGGDMCRGGDGKSHLSSRNDDSDLKENLNGNWNKSFGVHGENVRENVNCCSCYKMLIKNIEYIANCVRDHKANRAKGIEWKKVAKVMDRFFMWIFFIMVFFMSVLIIGKAA
chain 2: AQGRLAHKLLHDLFANYSSALRPAEDTERALNVTLQVTLSQIIDMDERNQVLTSYLWVRQAWLDAHLAWDKDAYGGIDSIRIPSSYVWRPDIVLYNNADERFGGSMETNVVLRSDGHIMWDSPAITKSSCKVDVSYFPFDGQQCRLTFGSWTYNGNQIDLRNLLDTGDLTDFVENVEWEVLGMPATRNVVTYGCCSEPYPDVTYTLLLRRRASFYIFNLLLPCVMISFLAPLGFYLPADSGEKVSLGVTVLLALTVFQLLVAESMPPSESVPLIGKYYIATMTMITASTALTIFIMNIHHCGPGARPVPPWARRLILHHLARALCVCEVGESCGRPQREGTGGMGPRDPPGEGVEPGLCPRSRCLCHHHAVLSSVGYIAGVFRRHRTAQRRAAEWKKVAKVMDRFFMWVFFLMVFLMSVLVIGKAA
Regarding B2, in experiment [4], the “fold change of co-precipitation after BAPTA-AM” value is 2 fold.
